{
  "source": "patent EP2801619A1",
  "about": "(Fondazione Edmund Mach, dated 2014)",
  "binders": {"B1": {"name": "CURVATURE THYLAKOID1A (CURT1A) of Arabidopsis thaliana, endogenous protein in thylakoid membranes (other)", "chain": "ASSEETSSIDTNELITDLKEKWDGLENKSTVLIYGGGAIVAVWLSSIVVGAINSVPLLPKVMELVGLGYTGWFVYRYLLFKSSRKELAEDIESLKKKIAGSE", "notes": "Thylakoid membrane protein as found in plant thylakoids; also called At4g01150"}},
  "key": {"[1]": {"target": "B1", "test": "2D-BN/SDS-PAGE of thylakoid multiprotein complexes (Fig. 5b)"}, "[2]": {"target": "the molecule itself", "test": "quantification of CURT1A crosslinking products from thylakoids of WT and CURT1A-cmyc overexpressors"}, "[3]": {"target": "the molecule itself", "test": "chemical crosslinking (BS3) of thylakoid proteins, SDS-PAGE and immunoblot, WT against curt1 mutants"}},
  "data": [
    {"binder": "CURVATURE THYLAKOID1C (CURT1C) of Arabidopsis thaliana, endogenous protein in thylakoid membranes (other, Thylakoid membrane protein as found in plant thylakoids; also called At1g52220) ASGESSDSSTDLDVVSTIQNVWDKSEDRLGLIGLGFAGIVALWASLNLITAIDKLPVISSGFELVGILFSTWFTYRYLLFKPDRQELSKIVKKSVADILGQ", "values": [
      {"measurement": "binding result", "setting": "[1]", "result": "binds"}
    ]},
    {"binder": "CURT1A with a C-terminal cmyc tag, expressed in curt1a-2 or WT plants (other, Coding region under the 35S promoter; also called CURT1A-cmyc; cmyc-tagged CURT1A; not shown: C-terminal cmyc tag from vector pPCV812deltaNotI-Lola) ASSEETSSIDTNELITDLKEKWDGLENKSTVLIYGGGAIVAVWLSSIVVGAINSVPLLPKVMELVGLGYTGWFVYRYLLFKSSRKELAEDIESLKKKIAGSE", "values": [
      {"measurement": "binding result", "setting": "[2]", "result": "binds"}
    ]},
    {"binder": "B1", "values": [
      {"measurement": "binding result", "setting": "[3]", "result": "binds"}
    ]}
  ]
}
